The source of these data is patent US20260167684A1 (MERIDA BIOSCIENCES, published 2026).

Assay [1] addresses T1, FcγRIIA167H (UniProt P12318 36-218).
T1 construct: Soluble protein used in SPR
T1 sequence (looked up): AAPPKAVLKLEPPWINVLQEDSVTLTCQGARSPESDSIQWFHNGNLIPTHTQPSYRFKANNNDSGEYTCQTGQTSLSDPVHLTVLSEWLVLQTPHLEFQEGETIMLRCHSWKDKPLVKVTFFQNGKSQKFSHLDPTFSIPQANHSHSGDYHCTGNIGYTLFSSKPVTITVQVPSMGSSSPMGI
Nature of the assay: SPR, molecule captured on the sensor chip, FcγRIIA167H as analyte. On the procedure: (§1) Binding assays using SPR were performed to determine the binding affinity of the exemplary molecules. Molecules were captured on a CM5 SPR chip. Increasing concentrations of FcγR analyte (FcγRIIA167H, FcγRIIA167R or FcγRIIB) were subsequently injected over the captured molecules and a single dissociation performed using single cycle kinetics. The data was then analyzed using steady state analysis which is suitable for low affinity interactions. In particular, a plot of response at equilibrium against the molecule concentration was generated.
Background: Surface plasmon resonance follows binding to a sensor surface in real time, without labels.

In assay [2] the target is T2, FcγRIIB (human, UniProt P31994 46-217, limits assumed).
T2 construct: Soluble protein used in SPR
T2 sequence (looked up): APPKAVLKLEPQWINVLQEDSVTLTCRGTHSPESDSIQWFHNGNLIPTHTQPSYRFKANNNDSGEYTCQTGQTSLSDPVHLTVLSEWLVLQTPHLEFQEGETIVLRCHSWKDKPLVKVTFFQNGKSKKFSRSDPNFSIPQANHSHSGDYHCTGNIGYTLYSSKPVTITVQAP
Nature of the assay: SPR; molecule captured on CM5 chip, FcγR as analyte; steady-state fit. On the procedure:
as §1

Assay [3] has as its target T3, FcγRIIA167R (UniProt P12318 36-218).
T3 construct: Soluble protein used in SPR
T3 sequence (looked up): T1 sequence (looked up) with H132R
The experiment in a line: SPR, molecule captured on the sensor chip, FcγRIIA167R as analyte. As for the experimental part: as §1

Assay [4] addresses T2, FcγRIIB. The experiment in a line: SPR, molecule captured on the sensor chip, FcγRIIB as analyte; steady state plot of response against analyte concentration.
Assay [5] has as its target T4, FcγRIIB expressed on cells (CHO-FcγRIIB+ cells; primary human cells that express FcγRIIB) (human, UniProt P31994 43-310).
T4 construct: whole, on cells; also called FcγRIIB-expressing CHO cells
T4 sequence (looked up): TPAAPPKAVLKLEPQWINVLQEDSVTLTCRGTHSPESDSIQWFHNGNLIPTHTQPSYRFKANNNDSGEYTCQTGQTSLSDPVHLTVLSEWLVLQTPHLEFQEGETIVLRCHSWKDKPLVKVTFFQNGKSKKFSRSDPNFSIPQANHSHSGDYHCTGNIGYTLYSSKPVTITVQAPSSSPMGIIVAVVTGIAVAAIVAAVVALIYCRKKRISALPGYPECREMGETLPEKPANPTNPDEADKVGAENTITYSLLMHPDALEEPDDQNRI
Nature of the assay: flow cytometry, CHO cells expressing FcγRIIB, molecule pre-complexed with M22-PE at 1:1 or 4:1 molar ratio, with and without anti-FcγRIIB antibody 2B6. As for the experimental part:
Cells expressing FcγRIIB are seeded in a 96-well plate and stained with Live/Dead Violet Fixable Dye. Next, the pre-complexed molecule and autoantibody are incubated with the cells at various concentrations at either 4C (to assess binding) or 37C (to assess uptake). After incubation, cells are washed with PBS (binding) or acidic media to remove surface-bound complexes (uptake). Cellular fluorescence is determined by flow cytometry.
In general terms: A flow cytometer gives signals particle by particle.

Another assay addresses T5, human C1q (human, UniProt P02745 23-245; P02746 28-253; P02747 29-245).
T5 construct: also called complement (C1q)
Nature of the assay: ELISA (n=2), serial dilutions of the molecule coated on the plate, human C1q at 5 µg/mL, anti-C1q HRP detection. (In general: ELISA stands for enzyme-linked immunosorbent assay.)

In assay [6] the target is T3, FcγRIIA167R. The experiment in a line: SPR; molecule captured on CM5 chip, FcγR as analyte; steady-state fit. As for the experimental part:
as §1

The target in assay [7] is T1, FcγRIIA167H. Described as above. As for the experimental part:
as §1

Where a chain is given by its changes, count along the chain named. Numbers in names are those of the source.

A word on the Kd: it is the equilibrium constant for the complex coming apart. A higher Kd goes with a looser complex.

T5 sequence (P02745 23-245 limits assumed, chain 1 of 3): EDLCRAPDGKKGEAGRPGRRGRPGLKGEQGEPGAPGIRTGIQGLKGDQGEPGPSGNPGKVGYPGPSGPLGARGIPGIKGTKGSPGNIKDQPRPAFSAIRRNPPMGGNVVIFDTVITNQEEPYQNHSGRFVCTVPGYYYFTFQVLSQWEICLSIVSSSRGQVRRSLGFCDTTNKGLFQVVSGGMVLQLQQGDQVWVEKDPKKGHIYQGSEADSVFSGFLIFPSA
T5 sequence (P02746 28-253 limits assumed, chain 2 of 3): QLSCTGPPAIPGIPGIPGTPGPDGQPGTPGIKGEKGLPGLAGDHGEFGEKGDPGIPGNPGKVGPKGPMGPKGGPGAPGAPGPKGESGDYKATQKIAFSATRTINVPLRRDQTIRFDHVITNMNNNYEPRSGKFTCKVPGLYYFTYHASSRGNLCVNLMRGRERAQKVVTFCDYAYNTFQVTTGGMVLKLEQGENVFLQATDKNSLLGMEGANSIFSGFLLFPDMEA
T5 sequence (P02747 29-245 limits assumed, chain 3 of 3): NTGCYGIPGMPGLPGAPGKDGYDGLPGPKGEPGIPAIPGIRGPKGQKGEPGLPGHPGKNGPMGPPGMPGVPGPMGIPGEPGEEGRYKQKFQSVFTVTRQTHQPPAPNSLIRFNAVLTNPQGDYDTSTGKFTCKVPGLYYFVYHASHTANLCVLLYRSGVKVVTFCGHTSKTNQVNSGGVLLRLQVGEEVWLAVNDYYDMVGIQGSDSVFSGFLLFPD
Experimental for human C1q: An IgG4 was used as a negative control.
Varying dilutions of each exemplary molecule or one of the controls were tested for binding to C1q by ELISA where serial dilutions of molecules or controls were coated on a plate (at 0.01 μg/mL, 0.1 μg/mL, 1.0 μg/mL, 10.0 μg/mL, 100.0 μg/mL, and 1000 μg/mL) overnight at 4 C. After blocking and subsequent wash steps, human C1q at 5 μg/mL was added to the ELISA plate for 1 hour at room temperature. The plate was washed and a sheep polyclonal anti-C1q HRP antibody at 1:200 dilution was added and incubated for an additional 1 hour. Development of the ELISA plate was carried out by addition of TMB. Color development was then stopped with addition of 3N HCl. Plate absorbance was read at 450 nm using a plate ready.

B1: Variant G2 (Fc fusion)
chain 1: MGCSSPPCECHQEEDFRVTCKDIQRIPSLPPSTQTLKLIETHLRTIPSHAFSNLPNISRIYVSIDVTLQQLESHSFYNLSKVTHIEIRNTPNLTYIDPDALKELPLLKFLGIFNTGLKMFPPLTKVYSTDIFFILEITDNPYMTSIPRNAFQGLCNETLTLKLYNNGFTSVQGYAFNGTKLDAVYLNKNKYLTVIDKDAFGGVYSGPSLLDVSQTSVTALPSKGLEHLKELRARNTWTLDKTHTCPPCPAPVDFRDPLVFLFPPKPKDTLMISRTPEVTCVVVDVDPEDPEVKFNWYVDGVEVHNAKTKPQEEQYNGAYRVVSVLTVLHQDWLNGKEYKCKVSNKLAPHPIIKTISKAKGQPREPQVYTLPPCRDELTKNQVSLWCLVKGFYPSDIAVEWESNGQPENNYKTTPPVLDSDGSFFLYSKLTVDKSRWQQGNVFSCSVMHEALHNHYTQKSLSLSPGK
chain 2: DKTHTCPPCPAPVDFRDPLVFLFPPKPKDTLMISRTPEVTCVVVDVDPEDPEVKFNWYVDGVEVHNAKTKPQEEQYNGAYRVVSVLTVLHQDWLNGKEYKCKVSNKLAPHPIIKTISKAKGQPREPQVCTLPPSRDELTKNQVSLSCAVKGFYPSDIAVEWESNGQPENNYKTTPPVLDSDGSFFLVSKLTVDKSRWQQGNVFSCSVMHEALHNHYTQKSLSLSPGK
notes: Knob-in-hole heterodimer; also called TSHR260 2P2R huIgG1 Fc E233V/L234D/L235F/G236R/G237D/S239L/S267D/R292Q/H268P/S298G/T299A/A327L/L328A/A330H/E333I
In the case of B1, the binding result with FcγRIIA167H [1] was “no binding (tested: about 2.4e-6 M)”. Binding in the assay with FcγRIIB [2] was characterised by a dissociation constant (Kd) of 2610 nM.

B2: Variant G1 (Fc fusion)
chain 1: B1 chain 1 with Q311R
chain 2: B1 chain 2 with Q72R
notes: Knob-in-hole heterodimer; also called TSHR260 2P2R huIgG1 Fc E233V/L234D/L235F/G236R/G237D/S239L/S267D/H268P/S298G/T299A/A327L/L328A/A330H/E333I
In the case of B2, the binding result with FcγRIIA167H [1] was “no binding (tested: about 2.4e-6 M)”. In the assay with FcγRIIB [2], this molecule gave a Kd of 2620 nM.

B3: Variant G3 (Fc fusion)
chain 1: B1 chain 1 with D286S
chain 2: B1 chain 2 with D47S
notes: Knob-in-hole heterodimer; also called TSHR260 2P2R huIgG1 Fc E233V/L234D/L235F/G236R/G237D/S239L/H268P/R292Q/S298G/T299A/A327L/L328A/A330H/E333I
Regarding B3, the binding result with FcγRIIA167H [1] and in the assay with FcγRIIA167R [3] was “no binding (tested: about 2.4e-6 M)” in each case. The same molecule returned a Kd in the assay with FcγRIIB [2] of 3650 nM.

B4: Variant E3 (Fc fusion)
chain 1: MGCSSPPCECHQEEDFRVTCKDIQRIPSLPPSTQTLKLIETHLRTIPSHAFSNLPNISRIYVSIDVTLQQLESHSFYNLSKVTHIEIRNTPNLTYIDPDALKELPLLKFLGIFNTGLKMFPPLTKVYSTDIFFILEITDNPYMTSIPRNAFQGLCNETLTLKLYNNGFTSVQGYAFNGTKLDAVYLNKNKYLTVIDKDAFGGVYSGPSLLDVSQTSVTALPSKGLEHLKELRARNTWTLDKTHTCPPCPAPELLGGDSVFLFPPKPKDTLMISRTPEVTCVVVDVSHEDPEVKFNWYVDGVEVHNAKTKPREEQYNSTYRVVSVLTVLHQDWLNGKEYKCKVSNKALPAPIEKTISKAKGQPREPQVYTLPPCRDELTKNQVSLWCLVKGFYPSDIAVEWESNGQPENNYKTTPPVLDSDGSFFLYSKLTVDKSRWQQGNVFSCSVLHEALHSHYTQKSLSLSPGK
chain 2: DKTHTCPPCPAPELLGGDSVFLFPPKPKDTLMISRTPEVTCVVVDVSHEDPEVKFNWYVDGVEVHNAKTKPREEQYNSTYRVVSVLTVLHQDWLNGKEYKCKVSNKALPAPIEKTISKAKGQPREPQVCTLPPSRDELTKNQVSLSCAVKGFYPSDIAVEWESNGQPENNYKTTPPVLDSDGSFFLVSKLTVDKSRWQQGNVFSCSVLHEALHSHYTQKSLSLSPGK
notes: Knob-in-hole heterodimer; also called TSHR260 2P2R huIgG1 Fc P238D/LS; TSHR260 2P2R huIgG1 with P238D and LS
On to B4, for which the binding result with FcγRIIB [4] is reported as “binds”; in assay [5], “binds”; in the assay with human C1q it was “no binding (tested: 100 µg/mL)”.

B5: Variant G13 (Fc fusion)
chain 1: B4 chain 1 with G256D, D289E, P290G, A349R, D375E, L377M, L447M, S453N
chain 2: B4 chain 2 with G17D, D50E, P51G, A110R, D136E, L138M, L208M, S214N
notes: Knob-in-hole heterodimer; also called TSHR260 2P2R huIgG1 Fc G237D/P238D/D270E/P271G/A330R
On to B5, for which the Kd was determined as 127 nM with FcγRIIB [2] and 1790 nM with FcγRIIA167R [6].

B6: Variant G14 (Fc fusion)
chain 1: B4 chain 1 with D257P, S258D, H287D, L347W, L447M, S453N
chain 2: B4 chain 2 with D18P, S19D, H48D, L108W, L208M, S214N
notes: Knob-in-hole heterodimer; also called TSHR260 2P2R huIgG1 Fc S239D/H268D/L328W
As for B6, the Kd with FcγRIIB [2] came out at 30.9 nM; in the assay with FcγRIIA167R [6] it was 4.32 nM; with FcγRIIA167H [7] it was 114 nM.

B7: Variant G12 (Fc fusion)
chain 1: B4 chain 1 with G256D, P290G, A349R, D375E, L377M, L447M, S453N
chain 2: B4 chain 2 with G17D, P51G, A110R, D136E, L138M, L208M, S214N
notes: Knob-in-hole heterodimer; also called TSHR260 2P2R huIgG1 Fc G237D/P238D/P271G/A330R
For B7, the values for the Kd with FcγRIIB [2], in the assay with FcγRIIA167R [6] and in the assay with FcγRIIA167H [7] were 22.3 nM, 369 nM and 3810 nM, respectively.

B8: Variant G6 (Fc fusion)
chain 1: B4 chain 1 with L253D, G255N, D257P, S286E, L447M, S453N
chain 2: B4 chain 2 with L14D, G16N, D18P, S47E, L208M, S214N
notes: Knob-in-hole heterodimer; also called TSHR260 2P2R huIgG1 Fc L234D/G236N/S267E
On to B8, for which the binding result with FcγRIIA167H [1] is on record as “no binding (tested: about 2.4e-6 M)”. The same molecule returned a Kd with FcγRIIB [2] of 335 nM.

B9: Variant G4 (Fc fusion)
chain 1: B4 chain 1 with E252D, G256D, H287D, P290G, A349R, L447M, S453N
chain 2: B4 chain 2 with E13D, G17D, H48D, P51G, A110R, L208M, S214N
notes: Knob-in-hole heterodimer; also called TSHR260 2P2R huIgG1 Fc E233D/G237D/P238D/H268D/P271G/A330R
As for B9, the results for the Kd with FcγRIIB [2] and with FcγRIIA167R [6] were 55.6 nM and 836 nM, respectively.
